Reference: patent publication US20240301086A1 (APTEVO RESEARCH AND DEVELOPMENT, published 2024)

What was measured:
[1] = target: T1, mIgG Fc-cyno PSMA ECD (cynomolgus monkey); experiment: SPR (Biacore T200), bispecific amine-coupled, mFc-PSMA dimer 1-81 nM as analyte, 1:1 fit
T1 construct: Called PSMA dimer in the SPR method; also called mFc-Cyno PSMA ECD; murine Fc-tagged cyno PSMA ECD
T1 chain: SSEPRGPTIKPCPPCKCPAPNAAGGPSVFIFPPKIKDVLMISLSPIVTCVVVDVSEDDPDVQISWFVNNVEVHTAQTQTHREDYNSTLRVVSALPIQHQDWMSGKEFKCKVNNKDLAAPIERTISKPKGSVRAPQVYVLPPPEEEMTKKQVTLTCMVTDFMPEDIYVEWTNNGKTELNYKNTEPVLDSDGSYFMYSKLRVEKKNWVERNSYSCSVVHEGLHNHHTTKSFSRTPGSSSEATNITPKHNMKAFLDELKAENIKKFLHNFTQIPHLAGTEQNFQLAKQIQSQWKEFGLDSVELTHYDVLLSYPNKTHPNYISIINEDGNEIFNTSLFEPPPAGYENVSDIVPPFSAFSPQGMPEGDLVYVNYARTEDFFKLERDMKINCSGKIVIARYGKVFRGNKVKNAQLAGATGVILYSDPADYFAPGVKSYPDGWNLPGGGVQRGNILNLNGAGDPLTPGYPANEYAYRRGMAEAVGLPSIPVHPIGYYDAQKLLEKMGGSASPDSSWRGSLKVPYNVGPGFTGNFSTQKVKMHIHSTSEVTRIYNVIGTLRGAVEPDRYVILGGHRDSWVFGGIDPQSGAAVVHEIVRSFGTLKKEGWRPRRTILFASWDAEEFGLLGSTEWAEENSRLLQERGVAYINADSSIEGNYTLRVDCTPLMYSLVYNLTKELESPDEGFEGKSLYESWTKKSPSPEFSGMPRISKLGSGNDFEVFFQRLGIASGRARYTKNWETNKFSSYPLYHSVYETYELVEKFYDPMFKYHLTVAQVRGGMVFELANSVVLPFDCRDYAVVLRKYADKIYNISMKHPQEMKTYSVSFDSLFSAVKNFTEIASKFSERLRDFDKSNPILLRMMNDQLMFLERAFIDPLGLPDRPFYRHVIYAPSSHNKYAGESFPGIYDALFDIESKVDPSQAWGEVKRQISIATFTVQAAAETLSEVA
Method: (§1) SPR studies were performed on a subset of bispecific constructs binding to Human and cynomolgus primate PSMA ectodomain (ECD) fused to the c-terminus of a murine IgG1 Fc region. These experiments were conducted at 25° C. in dPBS (Gibco, 14040-133) with 0.2% BSA buffer on a Biacore T200 system. Bispecific constructs were immobilized at a density of ˜2,000-4,000 response units (RU) onto individual flow cells of a CM5 research-grade sensor chip (GE) by standard amine coupling chemistry, leaving one flow cell surface unmodified as the reference. Using a multi-cycle kinetics mode, a buffer blank and […] different concentrations of the PSMA dimer ranging from 1 nM to 81 nM in dPBS with 0.2% BSA were sequentially injected through each flow cell at 30 μL/min for 300 seconds followed by a 600 second dissociation phase. Regeneration was achieved by injection of 10 mM glycine pH 2.0 at a flow rate of 30 μL/min for 40 seconds followed by dPBS with 0.2% BSA buffer stabilization for 1 min.
(§2) Sensorgrams obtained from kinetic SPR measurements were analyzed by the double subtraction method. The signal from the reference flow cell was subtracted from the analyte binding response obtained from flow cells with captured ligands. The buffer blank response was then subtracted from analyte binding responses and the final double-referenced data were analyzed with Biacore T200 Evaluation software (2.0, GE), globally fitting data to derive kinetic parameters. All sensorgrams were fitted using a simple one-to-one binding model.

[2] = target: T2, mIgG Fc-human PSMA ECD (human); experiment: as above
T2 construct: Called PSMA dimer in the SPR method; also called mFc-Hu PSMA ECD; murine Fc-tagged human PSMA ECD
Method: as §1, §2

- Kd [1]: 4.4 nM
- Kd [2]: 3 nM
B1: PSMA01107 Anti-PSMA scFv x Fc x linker x Anti CD3 scFv; Anti PSMA scFv x Fc (bispecific antibody)
chain 1: QVQLVQSGAEVKKPGASVKVSCKASGYTFTDYYMHWVRQAPGQGLEWMGYFNPYNDYTRYAQKFQGRVTMTRDTSTSTVYMELSSLRSEDTAVYYCARSDGYYDAMDYWGQGTTVTVSSGGGGSGGGGSGGGGSGGGGSDIQMTQSPSSLSASVGDRVTITCRASKSISKYLAWYQQKPGKAPKLLIHSGSSLESGVPSRFSGSGSGTEFTLTISSLQPDDFATYYCQQHIEYPWTFGQGTKVEIKEPKSSDKTHTCPPCPAPPAAAPSVFLFPPKPKDTLMISRTPEVTCVVVDVSHEDPEVKFNWYVDGVEVHNAKTKPREEQYNSTYRVVSVLTVLHQDWLNGKEYKCAVSNKALPAPIEKTISKAKGQPREPQVYTLPPSRDELTKNQVSLWCLVKGFYPSDIAVEWESNGQPENNYKTTPPVLDSDGSFFLYSKLTVDKSRWQQGNVFSCSVMHEALHNHYTQKSLSLSPGGGGSPSQVQLVQSGAEVKKPGASVKVSCKASGYTFTRSTMHWVRQAPGQGLEWIGYINPSSAYTNYAQKFQGRVTLTADKSTSTAYMELSSLRSEDTAVYYCASPQVHYDYNGFPYWGQGTLVTVSSGGGGSGGGGSGGGGSGGGGSDIQMTQSPSSLSASVGDRVTITCRASSSVSYMNWYQQKPGKAPKRWIYDSSKLASGVPSRFSGSGSGTDFTLTISSLQPEDFATYYCQQWSRNPPTFGQGTKVEIKRS
chain 2: QVQLVQSGAEVKKPGASVKVSCKASGYTFTDYYMHWVRQAPGQGLEWMGYFNPYNDYTRYAQKFQGRVTMTRDTSTSTVYMELSSLRSEDTAVYYCARSDGYYDAMDYWGQGTTVTVSSGGGGSGGGGSGGGGSGGGGSDIQMTQSPSSLSASVGDRVTITCRASKSISKYLAWYQQKPGKAPKLLIHSGSSLESGVPSRFSGSGSGTEFTLTISSLQPDDFATYYCQQHIEYPWTFGQGTKVEIKEPKSSDKTHTCPPCPAPPAAAPSVFLFPPKPKDTLMISRTPEVTCVVVDVSHEDPEVKFNWYVDGVEVHNAKTKPREEQYNSTYRVVSVLTVLHQDWLNGKEYKCAVSNKALPAPIEKTISKAKGQPREPQVYTLPPSRDELTKNQVSLSCAVKGFYPSDIAVEWESNGQPENNYKTTPPVLDSDGSFFLVSKLTVDKSRWQQGNVFSCSVMHEALHNHYTQKSLSLSPG
notes: Heterodimer, bivalent for PSMA and monovalent for CD3 (VH-VL scFv at the C-terminus); also called PSMA1107
